Where “and” joins values, the source holds several entries; their conditions need not be identical. Equal entries are not always repeated.
T1: Xre^Pp antitoxin with a N-terminal His6-tag (Xre_(NHis6)), of the Xre_(NHis6)-RES^Pp complex (Pseudomonas putida KT2440, UniProt Q88K58 11-159)
T1 construct: also called Xre_(His6); source: E. coli BL21(DE3), pETDuet::xre_(NHis6)-res^Pp, purified with RES (HisTrap FF, Source 15Q, Superdex 200 Increase); not shown: His6, N-terminal, kept
T1 sequence: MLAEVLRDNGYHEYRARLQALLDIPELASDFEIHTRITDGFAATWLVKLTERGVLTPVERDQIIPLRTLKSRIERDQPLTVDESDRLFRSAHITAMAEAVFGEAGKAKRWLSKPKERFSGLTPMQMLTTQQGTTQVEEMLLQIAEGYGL

B1: RES^Pp toxin, untagged, co-expressed and co-purified with Xre_(NHis6) (Xre_(NHis6)-RES^Pp complex) (natural protein, Pseudomonas putida KT2440)
chain: MILWRISAYADLSGTGGLRVSGRWHQAGRPVVYAATSPPGAMLEVLVHLEIDPEDFPTTMRLLRIELPDTVSQAQLPALQPGWSAQPELTRTLGNRFLDDCSALLLPVPSAIMPSTTNYLFNPRHPQAQSAKIQVEDFTPDSRLF
notes: also called RES toxin
B2: RES^Pp toxin with N-terminal His6-tag (RES^Pp_(NHis6)), of the Xre-RES^Pp_(NHis6) complex (natural protein, Pseudomonas putida KT2440, UniProt Q88K57 1-145, looked up)
chain: B1 chain
notes: RES-domain NADase toxin encoded by res^Pp of the xre-res locus, Pseudomonas putida KT2440; residues 1-145 built in PDB 9R35; the 13 N-terminal residues from the tag are not seen in the model; also called RES_(His6); RES^Pp_(His6); not shown: His6, N-terminal, kept
B3: Xre^Pp antitoxin, untagged, co-expressed and co-purified with RES^Pp_(NHis6) (Xre-RES^Pp_(NHis6) complex) (natural protein, Pseudomonas putida KT2440, UniProt Q88K58 11-159, looked up)
chain: T1 sequence
notes: Xre antitoxin (N-terminal HTH domain, C-terminal DUF2384) encoded by xre^Pp of the xre-res locus, Pseudomonas putida KT2440; residues 1-149 built in PDB 9R35 (complete in chain B and others); also called Xre antitoxin

Key:
[1] = biological target: the molecule itself; test: mass photometry
[2] = biological target: T1, Xre^Pp antitoxin with a N-terminal …; test: SEC; details: both partners purified
[3] = biological target: the molecule itself; test: SEC-MALS; Superose 6 Increase 10/300, 20-40 ug per sample, 20 mM HEPES pH 7.5, 150 mM KCl, 5 mM MgCl2, 3 mM BME
[4] = biological target: B2; test: as above; details: both partners purified
[5] = biological target: B2; test: mass photometry; details: both partners purified

B1 was tested, and the binding result [1] was “binds” and the “stoichiometry N” value [2] was 1 RES per Xre.

B2: binds [3].

With B3 the “stoichiometry N” value [4] was 2 Xre per RES and the “stoichiometry N” value [5] was ~2 Xre per RES and ~1.5 Xre per RES and ~1 Xre per RES.

Reference: publication PMC12204516, “Structural basis for higher-order DNA binding by a bacterial transcriptional regulator” (PLOS Genetics, 2025)
